In US20050118611:

Columns and labels:
NF-κB p50 homodimer = NF-κB p50 homodimer (UniProt P19838); details: SELDI also detects p50 on IgκB surface; lost on stringent washing unlike XBY-6
[1] = molecular target: NF-κB p65 (RelA) homodimer (UniProt Q04206); details: 1:1 stoichiometry; method not stated; cited from earlier work
Sequence of NF-κB p65 (RelA) homodimer (Q04206 whole entry): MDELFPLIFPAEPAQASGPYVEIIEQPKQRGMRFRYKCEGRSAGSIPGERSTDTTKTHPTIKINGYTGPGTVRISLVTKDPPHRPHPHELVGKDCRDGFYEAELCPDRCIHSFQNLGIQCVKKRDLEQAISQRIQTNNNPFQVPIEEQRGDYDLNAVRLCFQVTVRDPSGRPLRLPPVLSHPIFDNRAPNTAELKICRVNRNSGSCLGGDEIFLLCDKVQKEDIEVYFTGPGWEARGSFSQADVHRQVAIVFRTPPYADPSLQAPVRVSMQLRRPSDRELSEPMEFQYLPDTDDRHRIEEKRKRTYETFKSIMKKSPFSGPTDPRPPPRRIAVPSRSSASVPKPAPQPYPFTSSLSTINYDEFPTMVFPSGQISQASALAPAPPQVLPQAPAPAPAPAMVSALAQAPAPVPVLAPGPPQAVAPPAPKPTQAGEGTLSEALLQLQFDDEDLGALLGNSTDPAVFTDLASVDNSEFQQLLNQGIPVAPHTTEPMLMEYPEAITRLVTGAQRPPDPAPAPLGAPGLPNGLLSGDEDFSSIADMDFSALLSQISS

Sequence of NF-κB p50 homodimer (P19838 1-433): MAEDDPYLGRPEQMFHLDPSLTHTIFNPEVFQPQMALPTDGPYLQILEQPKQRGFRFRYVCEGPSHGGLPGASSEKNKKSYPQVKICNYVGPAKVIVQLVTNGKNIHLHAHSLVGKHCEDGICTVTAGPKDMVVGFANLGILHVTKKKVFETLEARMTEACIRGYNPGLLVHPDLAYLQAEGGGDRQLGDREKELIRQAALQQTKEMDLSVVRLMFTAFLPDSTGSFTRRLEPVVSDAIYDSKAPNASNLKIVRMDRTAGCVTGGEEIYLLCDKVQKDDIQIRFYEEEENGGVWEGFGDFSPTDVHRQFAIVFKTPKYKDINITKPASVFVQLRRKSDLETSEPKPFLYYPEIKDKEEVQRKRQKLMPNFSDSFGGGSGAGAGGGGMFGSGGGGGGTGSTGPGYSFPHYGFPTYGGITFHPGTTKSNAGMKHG

Question: Which results are given for IgκB 22-mer duplex?
Answer: Kd (NF-κB p50 homodimer): 4 nM; Kd [1]: 4 nM
